Assay results reported in patent US20230192846A1 (University of California, published 2023).
Where two headings read alike, the source gives them in different places.

B1: 6E6 single chain variable fragment (scFv) (scFv)
scFv: DIVMTQSHKFMSTSIGDRVSITCKASQDVGHYVAWYQQKPGQSPKLLIYWASTRHTGVPDRFTGSGSGTDFTLTISNVQSEDLADYFCQQYNIYPWTFGGGSKLAIKGSTSGSGKPGSGEGSTKGEVQLVESGGDLVKPGGSLKLSCAASGFTFSNYGMSWVRQTPDKRLEWVATISSGGGYTHYVDSVKGRFTISRDNANHILYLQMSSLNSEDTAMYYCARHPRDFSYAMDYWGQGTSVTVSSEFLFPPKPKDTLMISRTPEVTCVVVDVSHEDPEVKFNWYVDGVEVHNAKTKPREEQYNSTYRVVSVLTVLHQDWLNGKEYKCKVSNKALPAPIEKTISKAKGQPREPQVYTLPPSREEMTKNQVSLTCLVKGFYPSDIAVEWESNGQPENNYKTTPPVLDSDGSFFLYSKLTVDESRWQQGNVFSCSVMHEALHNHYTQKSLSLSPGK
notes: scFv fused to CH2-CH3 of human IgG1; the leader is left out here; also called 6E6 scFv; 6E6 anti-human ROR2 scFv
B2: 6E6 anti-human ROR2 monoclonal antibody (antibody, IgG1, V domains shown)
VH: EVQLVESGGDLVKPGGSLKLSCAASGFTFSNYGMSWVRQTPDKRLEWVATISSGGGYTHYVDSVKGRFTISRDNANHILYLQMSSLNSEDTAMYYCARHPRDFSYAMDYWGQGTSVTVSS
VL: DIVMTQSHKFMSTSIGDRVSITCKASQDVGHYVAWYQQKPGQSPKLLIYWASTRHTGVPDRFTGSGSGTDFTLTISNVQSEDLADYFCQQYNIYPWTFGGGSKLAIK
notes: Used conjugated with Alexa647 in flow cytometry and with pHrodo in the internalisation assay; also called 6E6 mAb
B3: 4G9 single chain variable fragment (scFv) (scFv)
scFv: DIVMTQAAPSVPVTPGESVSISCRSSKSLLHSNGNTYLYWFLQRPGQSPQLLIYRMSNLASGVPDRFSGSGSGTAFTLRISRVEAEDVGVYYCMQHLEYPLTVGAGTKLELKGSTSGSGKPGSGEGSTKGQVQLQQSGAELVRPGASVKLSCKALGYTFTDYEMHWVKQTPVHGLEWIGAIHPGSGGTAYNQKFKGKATLTADKSSSTAYMELSRLTSEDSAVYYCTRRRPRFYGMDYWGQGTSVTVSSEFLFPPKPKDTLMISRTPEVTCVVVDVSHEDPEVKFNWYVDGVEVHNAKTKPREEQYNSTYRVVSVLTVLHQDWLNGKEYKCKVSNKALPAPIEKTISKAKGQPREPQVYTLPPSREEMTKNQVSLTCLVKGFYPSDIAVEWESNGQPENNYKTTPPVLDSDGSFFLYSKLTVDESRWQQGNVFSCSVMHEALHNHYTQKSLSLSPGK
notes: scFv fused to CH2-CH3 of human IgG1; the leader is left out here; also called 4G9 scFv
B4: 5C11 anti-human ROR2 monoclonal antibody (antibody, IgG1, V domains shown)
VH: EVQLVESGGDLVKPGGSLKLSCAASGFTFSNYGMSWVRQTPDKRLEWVATISSGGGSTYYPDSVKGRFTISRDNAKNSLYLQMSSLKSEDTAMYYCARHPYDYGYYFDYWGQGTTLTVSS
VL: DILLTQSPDILSVSPGERVSFSCRASQSIGTSIHWYQQRTNGSPRLLIKYASESISGIPSRFSGSGSGTDFTLSINSVESEDIADYYCQQSDSWPFPFGSGTKLEKK
notes: also called 5C11 mAb
B5: 5G3 anti-human ROR2 monoclonal antibody (antibody, IgG2a, V domains shown)
VH: EVQLVESGGGLVQPKGSLKLSCAASGFTFNTYAMNWVRQAPGKGLEWVARIRSKSNNYATYYADSVKDRFTISRDDSQSMLHLQMNNLKTEDTAMYYCVRHGSSLYYAMDYWGQGTSVTVSS
VL: DIQMTQSPSSLSASLGERVSLTCRASQEISGYLGWLQQKPDGTIKRLIYAASTLDSGVPKRFSGSRSGSAYSLTISSLESEDFADYYCLQYASYPYTFGGGTKLEIK
notes: also called 5G3 mAb
B6: 4G9 anti-human ROR2 monoclonal antibody (antibody, IgG2a, V domains shown)
VH: QVQLQQSGAELVRPGASVKLSCKALGYTFTDYEMHWVKQTPVHGLEWIGAIHPGSGGTAYNQKFKGKATLTADKSSSTAYMELSRLTSEDSAVYYCTRRRPRFYGMDYWGQGTSVTVSS
VL: DIVMTQAAPSVPVTPGESVSISCRSSKSLLHSNGNTYLYWFLQRPGQSPQLLIYRMSNLASGVPDRFSGSGSGTAFTLRISRVEAEDVGVYYCMQHLEYPLTVGAGTKLELK
notes: Used conjugated with Alexa647 in flow cytometry and with pHrodo in the internalisation assay; also called 4G9 mAb

Key:
[1] = molecular target: T1, recombinant human ROR2-extracellular domain (ROR2-ECD) (human, UniProt Q01974 34-403); assay: KinExA 3200 kinetic exclusion assay; free scFv captured on particles coated with recombinant ROR2 protein, soluble ROR2 as titrant
T1 construct: also called recombinant ROR2-extracellular protein; recombinant ROR2 protein
Experimental: FIGS. 12A and 12B. Affinity measurement and binding specificity of the 6E6 single chain variable fragment (scFv) for human ROR2. Analysis was performed using a KinExA 3200 instrument. (FIG. 12A) The proportion of the 6E6 anti-human ROR2 scFv bound to particles coated with recombinant ROR2 protein (y-axis) in the presence of increasing molar (M) concentration of soluble ROR2 competitor (x-axis) is shown. (FIG. 12B) Illustration of the 95% confidence interval for the measured Kd of 6E6 scFv for binding to recombinant human ROR2. (FIG. 12C) Binding of the 6E6 scFv to ROR2 was assessed by flow cytometric staining and analysis of K562 (ROR2 positive) and JEKO (ROR2 negative) cells. Cells were stained on ice for 20 minutes with ~1 ug/ml of 6E6 anti-human ROR2 scfv, washed, stained for an additional 20 minutes on ice with phycoerythrin (PE)-conjugated anti-human IgG1 antibody, washed and analyzed by flow cytometry. Shaded histograms depict the relative fluorescence intensity (x axis) of viable cells, as determined by light scatter characteristics, stained with 6E6 scfv compared to viable cells stained with the anti-human IgG1-PE antibody only (open histograms).

[2] = molecular target: T1, recombinant human ROR2-extracellular …; assay: kinetic exclusion assay (KinExA), soluble recombinant ROR2
Experimental: (§1) FIGS. 4A and 4B. Affinity measurement of binding of the 6E6 and 4G9 mAb to recombinant ROR2 protein. (FIG. 4A) Analysis was performed using a KinExA 3200 instrument. The proportion of anti-human ROR2 mAb bound to particles coated with ROR2 protein (y-axis) in the presence of increasing molar (M) concentration of soluble ROR2 competitor (x-axis) is shown for 6E6 (upper panel) and 4G9 (lower panel). (FIG. 4B) Illustration of the 95% confidence interval for the measured Kd of 6E6 (upper panel) and 4G9 (lower panel) for binding to human ROR2.
(§2) Applicants assessed binding specificity and relative affinities of each mAb using recombinant ROR2-extracellular protein in an ELISA assay, in which binding was measured using decreasing/limiting amounts of ROR2 protein and assessed in combination with decreasing concentrations of each of the four mAb (FIG. 3). Higher absorbance values for 6E6 and 4G9 at both lower ROR2 protein amounts and lower concentrations of mAb, indicate these mAb have higher affinities compared to 5C11 and 5G3. Equilibrium dissociation constants (Kd) were measured in a kinetic exclusion assay (KinExA) that measures the equilibrium binding affinity and kinetics between unmodified molecules in solution.

h1-160 aa = molecular target: T2, h1-160 aa (human;mouse, UniProt Q01974;Q9Z138); assay: dot blot; recombinant protein on nylon membrane, probed with the mAb, HRP anti-mouse IgG
T2 construct: N-terminal part of the extracellular portion;C-terminal part of the extracellular portion; also called chimeric human/mouse recombinant ROR2 extracellular construct with the first 160 amino acids of human ROR2
Excerpt: (§3) FIG. 5. Identification of the binding regions of anti-human ROR2 mAb by assessment of binding to chimeric […] recombinant ROR2 protein. […] Each recombinant protein was transferred onto nylon membrane, probed with the 6E6, 4G9, 5C11, 5G3 or anti-his tag mAb, and detected with an anti-mouse IgG antibody conjugated with horse radish peroxidase, as shown in the right panel. The […] and 5C11 mAbs bind to ROR2 recombinant proteins that contain the human kringle domain.
(§4) Applicants developed a series recombinant human/mouse hybrid proteins that isolate specific domains of the human ROR2 protein. These recombinant proteins were used to identify the specific binding domains that each of the four mAb target (FIG. 5). The 6E6 and 5C11 mAb bind to the Kringle domain of human, but not mouse, ROR2. […] None of the four mAb bind mouse ROR2.

hCRD = molecular target: T3, hCRD (mouse;human, UniProt Q9Z138;Q01974); assay: as above
T3 construct: N-terminal part of the extracellular portion;cysteine rich domain (CRD);C-terminal part of the extracellular portion; also called chimeric human/mouse recombinant ROR2 extracellular construct that contains the cysteine rich domain of human ROR2
Excerpt: as §3, §4

h1-111 aa = molecular target: T4, h1-111 aa (human;mouse, UniProt Q01974;Q9Z138); assay: as above
T4 construct: N-terminal part of the extracellular portion;C-terminal part of the extracellular portion; A tag is not described, but the blot was also probed with an anti-his tag mAb
Excerpt: as §3, §4

[3] = molecular target: T5, mouse ROR2 (recombinant extracellular portion) (mouse, UniProt Q9Z138 34-403); assay: as above
Excerpt: as §3, §4

[4] = molecular target: T1, recombinant human ROR2-extracellular …; assay: kinetic exclusion assay (KinExA), soluble recombinant ROR2; remark: listed apart in the source
Experimental: as §1, §2

[5] = molecular target: T1, recombinant human ROR2-extracellular …; assay: KinExA 3200 kinetic exclusion assay; free mAb captured on particles coated with ROR2 protein, soluble ROR2 as titrant
Experimental: as §1, §2

[6] = molecular target: T6, recombinant human ROR2 with aspartic acid 354 replaced by the glutamic acid of mouse ROR2 (human, UniProt Q01974 34-403); assay: dot blot; recombinant protein on nylon membrane, probed with the mAb, HRP anti-mouse IgG
T6 construct: also called human ROR2 D354E

[7] = molecular target: T7, recombinant human ROR2 with histidine 349 replaced by the arginine of mouse ROR2 (human, UniProt Q01974 34-403); assay: as above
T7 construct: also called human ROR2 H349R

[8] = molecular target: T8, human ROR2 expressed on cells (human, UniProt Q01974 34-943); assay: flow cytometry on ROR2-expressing cells
T8 construct: Full-length human ROR2 entry; endogenous on cell lines and PDX cells, transfected in MCF7-ROR2; also called ROR2 surface antigen; human ROR2 on K562, BR1936 PDX, MCF7-ROR2 and other ROR2-expressing cell lines

[9] = molecular target: T1, recombinant human ROR2-extracellular …; assay: ELISA
[10] = molecular target: T9, recombinant human ROR2 with methionine 386 replaced by the valine of mouse ROR2 (human, UniProt Q01974 34-403); assay: dot blot; recombinant protein on nylon membrane, probed with the mAb, HRP anti-mouse IgG
T9 construct: also called human ROR2 M386V

[11] = molecular target: T5, mouse ROR2 (recombinant extracellular …); assay: as above; remark: listed apart in the source
hKringle [12] = molecular target: T10, hKringle (mouse;human, UniProt Q9Z138;Q01974); assay: as above
T10 construct: N-terminal part of the extracellular portion;C-terminal part of the extracellular portion with the Kringle domain; also called chimeric human/mouse recombinant ROR2 extracellular construct that contains the Kringle domain of human ROR2
Excerpt: as §3, §4

hKringle [13] = molecular target: T10, hKringle; assay: as above; remark: listed apart in the source

T1 sequence (Q01974 34-403 limits assumed): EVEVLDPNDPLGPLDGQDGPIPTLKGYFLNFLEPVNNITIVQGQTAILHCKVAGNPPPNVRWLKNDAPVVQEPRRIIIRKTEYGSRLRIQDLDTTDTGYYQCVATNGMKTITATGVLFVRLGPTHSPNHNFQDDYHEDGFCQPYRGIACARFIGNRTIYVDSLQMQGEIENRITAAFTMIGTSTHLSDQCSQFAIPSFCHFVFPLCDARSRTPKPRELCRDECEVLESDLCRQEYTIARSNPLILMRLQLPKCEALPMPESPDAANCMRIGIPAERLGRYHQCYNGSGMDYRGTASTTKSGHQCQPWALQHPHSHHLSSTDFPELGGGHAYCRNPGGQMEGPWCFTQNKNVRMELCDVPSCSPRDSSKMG
T3 sequence (Q9Z138 other isoform, or with tags, fused parts or gaps limits assumed): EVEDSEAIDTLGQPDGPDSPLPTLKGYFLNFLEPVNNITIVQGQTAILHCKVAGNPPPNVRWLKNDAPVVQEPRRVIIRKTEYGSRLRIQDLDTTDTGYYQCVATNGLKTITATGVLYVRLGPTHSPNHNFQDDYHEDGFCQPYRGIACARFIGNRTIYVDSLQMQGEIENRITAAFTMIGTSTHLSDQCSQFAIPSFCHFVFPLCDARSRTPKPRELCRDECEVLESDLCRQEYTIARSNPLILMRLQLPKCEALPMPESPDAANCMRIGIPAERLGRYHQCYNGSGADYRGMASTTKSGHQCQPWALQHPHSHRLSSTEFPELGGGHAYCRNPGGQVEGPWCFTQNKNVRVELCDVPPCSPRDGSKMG
T5 sequence (Q9Z138 other isoform, or with tags, fused parts or gaps limits assumed): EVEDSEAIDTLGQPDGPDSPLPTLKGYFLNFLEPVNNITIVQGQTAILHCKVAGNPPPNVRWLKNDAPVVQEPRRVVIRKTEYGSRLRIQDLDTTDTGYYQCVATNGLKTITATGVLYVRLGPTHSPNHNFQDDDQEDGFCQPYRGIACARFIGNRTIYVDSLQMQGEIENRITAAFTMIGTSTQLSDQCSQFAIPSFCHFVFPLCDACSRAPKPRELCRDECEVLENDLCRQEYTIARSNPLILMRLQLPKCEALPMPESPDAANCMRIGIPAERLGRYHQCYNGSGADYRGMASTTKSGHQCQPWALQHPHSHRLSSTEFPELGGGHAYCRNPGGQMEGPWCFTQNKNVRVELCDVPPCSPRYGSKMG
T2 sequence (Q01974 other isoform, or with tags, fused parts or gaps limits assumed): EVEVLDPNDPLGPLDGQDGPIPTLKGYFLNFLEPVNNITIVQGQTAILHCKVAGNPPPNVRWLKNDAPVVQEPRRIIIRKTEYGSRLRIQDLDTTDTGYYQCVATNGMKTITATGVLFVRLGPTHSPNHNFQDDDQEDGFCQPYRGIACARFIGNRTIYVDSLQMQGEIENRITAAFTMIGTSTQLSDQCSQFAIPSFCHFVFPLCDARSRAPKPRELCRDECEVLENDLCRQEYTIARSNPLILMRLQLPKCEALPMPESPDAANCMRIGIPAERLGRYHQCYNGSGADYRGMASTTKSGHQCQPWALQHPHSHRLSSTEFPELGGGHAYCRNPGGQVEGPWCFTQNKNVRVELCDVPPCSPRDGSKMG
T6 sequence (Q01974 34-403 D354E limits assumed): as the sequence (Q01974 34-403 limits assumed) above, with D321E counted along it
T7 sequence (Q01974 34-403 H349R limits assumed): as the sequence (Q01974 34-403 limits assumed) above, with H316R counted along it
T10 sequence (Q9Z138 other isoform, or with tags, fused parts or gaps limits assumed): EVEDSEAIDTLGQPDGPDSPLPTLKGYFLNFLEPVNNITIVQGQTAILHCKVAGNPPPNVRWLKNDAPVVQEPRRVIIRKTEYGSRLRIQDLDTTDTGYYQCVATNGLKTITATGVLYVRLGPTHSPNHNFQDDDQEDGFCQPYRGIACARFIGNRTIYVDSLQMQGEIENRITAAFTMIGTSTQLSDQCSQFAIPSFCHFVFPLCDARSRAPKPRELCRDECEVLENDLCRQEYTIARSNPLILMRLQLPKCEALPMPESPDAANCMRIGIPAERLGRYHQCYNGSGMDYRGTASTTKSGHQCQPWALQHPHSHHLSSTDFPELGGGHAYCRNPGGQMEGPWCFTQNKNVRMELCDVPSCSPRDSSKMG
T4 sequence (Q01974 other isoform, or with tags, fused parts or gaps limits assumed): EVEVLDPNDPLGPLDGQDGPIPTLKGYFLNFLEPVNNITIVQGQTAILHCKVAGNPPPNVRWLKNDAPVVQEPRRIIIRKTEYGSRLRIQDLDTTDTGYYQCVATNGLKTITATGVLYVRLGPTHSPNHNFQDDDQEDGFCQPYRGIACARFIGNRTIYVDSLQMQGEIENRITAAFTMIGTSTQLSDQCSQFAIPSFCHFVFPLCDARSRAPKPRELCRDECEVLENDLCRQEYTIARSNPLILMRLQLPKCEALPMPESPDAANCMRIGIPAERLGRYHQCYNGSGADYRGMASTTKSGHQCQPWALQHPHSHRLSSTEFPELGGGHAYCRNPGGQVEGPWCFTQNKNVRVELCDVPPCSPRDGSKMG
T9 sequence (Q01974 other isoform, or with tags, fused parts or gaps limits assumed): as the sequence (Q01974 34-403 limits assumed) above, with M353V counted along it
T8 sequence (Q01974 34-943 limits assumed): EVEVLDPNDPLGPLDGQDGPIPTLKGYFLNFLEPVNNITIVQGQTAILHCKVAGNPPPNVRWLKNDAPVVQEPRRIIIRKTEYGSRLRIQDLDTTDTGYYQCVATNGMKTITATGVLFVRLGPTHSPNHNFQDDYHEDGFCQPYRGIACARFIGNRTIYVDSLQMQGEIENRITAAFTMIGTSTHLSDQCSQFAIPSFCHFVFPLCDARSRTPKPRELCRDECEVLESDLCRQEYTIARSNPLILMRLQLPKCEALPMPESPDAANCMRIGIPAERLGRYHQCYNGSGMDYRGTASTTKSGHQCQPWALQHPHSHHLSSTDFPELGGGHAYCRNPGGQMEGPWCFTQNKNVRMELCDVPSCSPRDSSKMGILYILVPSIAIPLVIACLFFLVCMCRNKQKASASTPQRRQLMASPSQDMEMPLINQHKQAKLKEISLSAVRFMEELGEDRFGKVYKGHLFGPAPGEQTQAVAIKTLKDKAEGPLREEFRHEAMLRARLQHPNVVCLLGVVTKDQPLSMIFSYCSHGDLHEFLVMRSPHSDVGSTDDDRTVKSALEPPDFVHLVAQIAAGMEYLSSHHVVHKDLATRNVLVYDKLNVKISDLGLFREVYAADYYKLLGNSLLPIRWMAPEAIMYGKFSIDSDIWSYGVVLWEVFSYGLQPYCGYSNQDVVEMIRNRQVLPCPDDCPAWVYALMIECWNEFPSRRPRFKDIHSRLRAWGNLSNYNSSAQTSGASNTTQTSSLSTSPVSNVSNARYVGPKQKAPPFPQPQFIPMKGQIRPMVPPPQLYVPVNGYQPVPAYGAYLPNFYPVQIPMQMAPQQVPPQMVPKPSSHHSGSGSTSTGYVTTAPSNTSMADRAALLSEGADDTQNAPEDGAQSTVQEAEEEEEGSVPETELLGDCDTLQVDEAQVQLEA

| Binder | Kd [2] [nM] | binding result (h1-160 aa) | binding result (hCRD) | binding result (h1-111 aa) | binding result [3] | Kd [4] [nM] | Kd [5] [nM] | binding result [6] | binding result [7] | binding result [11] | further results |
| --- | --- | --- | --- | --- | --- | --- | --- | --- | --- | --- | --- |
| B1 | – | – | – | – | – | – | – | – | – | – | Kd [1]: 0.0737 nM |
| B2 | ~0.1 | no binding | no binding | no binding | no binding | < 0.1 | 0.0556 | no binding | no binding | – | – |
| B3 | – | – | – | – | – | – | – | – | – | – | binding result [8]: binds; binding result [9]: binds |
| B4 | – | no binding | no binding | no binding | – | > 40 | – | no binding | no binding | no binding | binding result [10]: no binding |
| B5 | – | – | no binding | – | no binding | > 40 | – | – | – | – | binding result (hKringle [12]): no binding |
| B6 | ~2 | – | no binding | – | – | ~1.9 | 1.9 | – | – | no binding | binding result (hKringle [13]): no binding |
